Measured values from the supplement of paper PMC10567573.

B1: TRIM14 (parent)
chain: YARTPTLDPDTMHARLRLSADRLT
B2: STK38L (parent)
chain: FCIDSENRIGNSGVEEIKGHPFFE

Variants of: B1
Assay: protein stability index of a GFP-peptide fusion (GPS, HEK-293T) (PSI 1-6); higher = more stable
Settings: c terminus: a fixed tail appended
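Further: lentivirally expressed fusions sorted by FACS into six bins by GFP to DsRed ratio, PSI derived from sequencing read proportions per bin multiplied by bin number.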

Protein stability index of substitutions, site by site:
L23: C 2.51, R 3.21, Y 2.44, F 2.13, H 3.21, E 4.03, A 2.96, M 3.06, G 2.58, K 3.43, Q 3.12, I 2.62, S 2.73, D 3.38, W 2.03, T 2.55, N 2.87, P 2.67
T24: Q 2.67, M 2.48, K 3.2, V 2.21, C 2.51, L 1.76, E 3.02, I 2.84, W 1.73, R 3.13, D 3.87, A 2.82, N 2.92, H 2.39, Y 2.08, S 2.54, F 1.65, P 2.17, G 3.09
R22: H 2.97, A 2.57, E 3.31, S 2.81, G 2.76, D 3.09, F 2.52, Y 2.62, L 2.68, V 2.26, N 2.77, K 2.33, Q 2.59, I 2.74, T 2.62, M 2.16, W 2.01, C 2.76, P 2.31
D21: R 2.02, Q 2.91, T 2.61, P 2.06, Y 1.6, L 1.8, V 1.52, M 1.96, W 1.62, N 2.54, S 3.05

Variants of: B2
Assay: as above
Settings: c terminus: a fixed tail appended

Protein stability index of substitutions, site by site:
N7: M 2.71, D 2.43, A 2.93, E 2.87, Y 1.8, L 2.24, V 1.22, P 2.21, G 2.26, I 1.58, W 4.28, Q 1.51, H 1.91, R 1.56, S 2.09, T 2.17, K 2.25, C 1.06
C2: R 3, L 2.94, V 2.03, H 1.99, F 3.12, Y 2.61, T 3.25, K 3.37, E 4.7, G 4.21, A 2.58, Q 2.33, M 3.58, S 3.61, D 3.12, P 2.39, I 2.69, N 2.93, W 2.62
N11: K 2.03, G 2.35, A 2.11, F 1.88, R 2.31, D 2.73, M 1.83, V 2, P 2.12, Y 2.12, C 2.3, L 1.65, W 1.57, S 1.99, T 1.81, H 2.38, Q 2.73, E 3.11
F1: L 3.66, W 3.19, M 4.78, K 4.3, D 4.9, G 4.26, C 2.84, T 4.42, S 4.34, V 3.77, Y 2.48, Q 4.91, P 4.45, I 3.24, E 4.61, A 4.85, H 4.55, N 4.4, R 5.09
G13: Y 2.28, D 2.55, A 2.07, M 2.12, K 2.44, I 2.47, E 3.12, C 2.1, L 2.22, Q 2.44, R 2.26, V 1.97, W 2.87, N 2.73, T 2.75, F 2.95, P 2.68, H 2.56
I9: L 1.99, Q 2.65, T 3.21, V 2.73, R 2.71, H 2.9, C 2.38, N 2.2, S 2.82, F 1.9, E 3.42, G 2.58, P 3.17, Y 2.58, K 2.19, W 1.58, M 2.03
E6: D 1.91, H 2.16, G 1.98, Y 1.71, Q 1.73, K 2.12, N 1.59, V 1.8, P 1.48, S 2.86, A 1.37, T 1.74, C 1.77, M 2.89, R 2, W 1.35, F 1.46, L 2.21, I 2.23
S5: I 2.44, M 2.12, C 2, E 3.39, L 1.06, N 2.4, Y 1.88, F 2.3, H 2.5, D 2.61, V 1.9, Q 2.49, T 2.25, G 2.53, K 1.9, A 1.95, P 1.47, R 2.21
R8: Y 2.15, S 2.55, L 2.34, G 2.8, E 3.56, W 2.87, N 2.94, F 2.45, H 2.72, K 2.37, T 3.15, I 2.79, V 2.02, P 2.71, D 3.9, Q 2.83, M 2.67, A 2.67, C 2.17
D4: I 2.24, T 2.44, V 2.22, A 2.09, M 2.86, E 2.91, Q 2.78, P 3.47, N 1.89, R 1.7, S 1.3, G 2, L 1.25, Y 2.07, K 2.83, F 1.46, H 2.8, W 1.84
S12: H 2.56, E 2.52, V 2, N 2.55, A 1.98, M 1.72, K 2.78, P 2.32, D 2.32, I 2.35, R 2.35, G 1.91, L 1.9, T 2.52, W 1.5, Y 1.99, Q 2.2, F 1.84
V14: L 1.54, M 2.47, W 1.96, T 2.29, E 2.96, A 3.13, Y 2.96, G 2.01, C 2.27, D 2.68, R 2.32, I 2.1, Q 2.74, F 1.6, S 2.32, N 2.8, K 2.72, P 2.46, H 2.06
E15: F 1.73, D 1.62, K 2.22, G 2.08, I 1.46, H 2, C 2.68, L 1.9, A 1.99
G10: R 2.98, T 2.38, D 2.75, S 2.39, K 2.53, C 2.32, E 2.54, F 1.57, I 1.87, Q 3.48, Y 1.79, M 2.11, V 1.54, P 2.31, N 3.64, H 2.71, W 1.1, A 2.27, L 1.96
I3: Q 3.06, T 3.6, K 2.5, R 2.49, L 2.57, S 2.3, D 4.02, E 3.95, C 1.96, G 3.29, P 1.85, M 2.9, A 2.04, N 3.43, V 3.26, Y 2.16, H 2.75, W 2.19, F 2.23
